Results from article PMC5496856.

Conditions: glycan lost; control: wild type

B1: MPT32 (also called Rv1860 or Apa): T10V (protein)
parent chain: MHQVDPNLTRRKGRLAALAIAAMASASLVTVAVPATANADPEPAPPVPTTAASPPSTAAAPPAPATPVAPPPPAAANTPNAQPGDPNAAPPPADPNAPPPPVIAPNAPQPVRIDNPVGGFSFALPAGWVESDAAHFDYGSALLSKTTGDPPFPGQPPPVANDTRIVLGRLDQKLYASAEATDSKAAARLGSDMGEFYMPYPGTRINQETVSLDANGVSGSASYYEVKFSDPSKPNGQIWTGVIGSPAANAPDAGPPQRWFVVWLGTANNPVDKGAAKALAESIRPLVAPPPAPAPAPAEPAPAPAPAGEVAPTPTTPTPQRTLPA
  other: T cell antigenicity: no change

B2: MPT32 (also called Rv1860 or Apa): T18V (protein)
parent chain: B1 parent chain
  other: T cell antigenicity: increases
